± gives the standard error. Fewer inactive variants are shown than the library holds.
B1: glmS ribozyme (parent)
chain: AUAAAAGCGCCAGAACUACAGAAAUGUAGUUGACGAGGAGGAGGUUUAUCGAAUUUUCGGCGGAUGCCUCCAAA

Key:
Conditions in all cases: with glucosamine-6-phosphate
[1] = variants of: B1; assay: self-cleavage kobs at 640 uM GlcN6P; higher = faster cleavage; RNA array
Summary of the method: (§1)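 Tracking of barcoded ribozyme variants used a hybridised Cy3 probe at 37 °C, after in situ transcription by E. coli RNA polymerase on sequenced MiSeq chips. The flowed solution held 40 μM to 10 mM glucosamine-6-phosphate in HEPES/KCl/Mg(OAc)2 buffer, and imaging ran over ~14 h. kobs was taken from exponential decay fits of normalised per-tile medians, and kcat and KM from weighted Michaelis–Menten fits.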

[2] = variants of: B1; assay: self-cleavage kobs at 2500 uM GlcN6P; higher = faster cleavage; RNA array
Summary of the method: as §1

[3] = variants of: B1; assay: self-cleavage kobs at 10000 uM GlcN6P; higher = faster cleavage; RNA array
Summary of the method: as §1

Row | Variant | self-cleavage kobs at 640 uM GlcN6P [1] [s⁻¹] | self-cleavage kobs at 2500 uM GlcN6P [2] [s⁻¹] | self-cleavage kobs at 10000 uM GlcN6P [3] [s⁻¹]
1 | AUAAAAGUGCCAGAACUACAGAAAUGUAGUUGACGCGGAGGAGGUUUGCCGAAUUUUCGGCGGAUGCCUCCAAA [C8U A36C A48G U49C] | < 1e-05 | < 1e-05 | 
2 | AUAAAAGUGCCAGUACUACAGAAAUGUAGUUGACGAGGAGGAGGUUUAUCGAAUUUCCUGCGGAUGCCUCCAAA [C8U A14U U57C G59U] | < 1e-05 |  | 
3 | AUAAAAGAGCCAGAACUACAGAAAUGUAGUUGACGGGGAGGUGGUUUAUCGAGUUUUCGGCGGAUGCCUCCAAA [C8A A36G A42U A53G] | < 1e-05 | < 1e-05 | 
4 | AUAAAAGGUCCAGAACUACAGAAAUGUAGUUGACGAGGAGGAGGUUUAUCCAAUUUUCGGCGGAUGCCUCCAAA [C8G G9U G51C] | < 1e-05 |  | 
5 | AUAAAAGAGCCAGAACUACAGAAAUGUAGUUGACGAGGAGGAGGUUUAUCGAACUUUCGGCGGCUGCCUCCAAA [C8A U54C A64C] | < 1e-05 | < 1e-05 | 
6 | AUAAAAGGGCCAGAACUACAGAAAUGUAGUUGACGAGGAGGAGGUUUAUCGAAUUUUCGGUGGAUGCUUCCAAA [C8G C61U C68U] | < 1e-05 | < 1e-05 | 
7 | AUAAAAGAGCCAGAAAUACAGAAAUGUAGUUGACGAGGUGGAGGUUUAUCGAAUUUUCUGCGGAUGCCUCCAAA [C8A C16A A39U G59U] | < 1e-05 |  | 
8 | AUAAAAGGGCCAGUACUACAGAAAUGUAGUUGACGAGGAGGAGGUUUAGCGAUUUUUCGGUGGAUGCCUCCAAA [C8G A14U U49G A53U C61U] | < 1e-05 |  | 
9 | AUAAAAGGGCCAGAGCUACAGAAAUGUAGUUGACGAGGAUGAGGUUUAUCGAAUUUUCGGCGGAUGCCUCCAAA [C8G A15G G40U] | < 1e-05 |  | 
10 | AUAAAAGACCCAGAACUACAGAAAUGUACUUGACUAGGAGGAGGUUUAUCGAAUUUUCGGCGGAUGCCUCCAAA [C8A G9C G29C G35U] | < 1e-05 | < 1e-05 | 
11 | AUAAAAGAGCCAGAACUACAGAAAUGUAGUUUACGAGGAGGAGGGUUGUCGAAUUUUCGGCGGAUGCCUCAAAA [C8A G32U U45G A48G C71A] | < 1e-05 |  | 
12 | AUAAAAGGGCCAGAACUACAGAAAUGUAGUUGUCGAGGAGGAGGUAUAUCGAAUUUUCGGCGGAUGCCGCCAAA [C8G A33U U46A U69G] | < 1e-05 | < 1e-05 | 
13 | AUAAAAGAGCCAGAACUACAGAAAUGUAGUUGACGAGGAGGAGGUUUAUGGAAUUUUGGGCAGAUGCCUCCAAA [C8A C50G C58G G62A] | 0.000111 ± 3.2e-05 | 0.000345 ± 8.6e-05 | 
14 | AUAAAAGAGCUAAAACUACAGAAAUGUAGUUGACGAGGAGGAGGUUUAUCGAAUUUUCGGCGGAUGCCUCUAAA [C8A C11U G13A C71U] | < 1e-05 | < 1e-05 | 
15 | AUAAAAGAGCCAGAACUACAGAAAUGUAGUUGACGUGGAGGAGGCUUAUCGAAUUUACGGCGGAUGCCUCCAAA [C8A A36U U45C U57A] | < 1e-05 |  | 
16 | AUAAAAGGGCCAGCACUACAGAAAUGUAGUUGACGAGGAGGAGGUUUAUCGAAUUUUCGGCGAAUGCCUCCAAA [C8G A14C G63A] | < 1e-05 | < 1e-05 | 
17 | AUAAAAGGGCCAGAACUACAGAAAUGUAGUUGACGAGGAGGAGGUUUAUCGAAUUUGCGGCGGAUGCCUUCAAA [C8G U57G C70U] | < 1e-05 | < 1e-05 | 
18 | AUAAAAGAGCCAGAACUACAGAAAUGUAGUUGACGCGGAGGAGGUUUAUCGAAUUUUCGGCGGAUGCUUCCAAA [C8A A36C C68U] | < 1e-05 |  | 
19 | AUAAAAGUGCCUGAACUACAGAAAUGUAGUUGACGAUGAGGAGGUUUAUCGAAUUUUCGGAGGUUGGCUCCAAA [C8U A12U G37U C61A A64U C67G] | 0.000544 ± 0.00022 |  | 
20 | AUAAAAGGGCCAGAACUACAGAAAUGUAGUUGACGAGGAGGCGGUUAAUCGAAUUUUCGGCGGAUGCCUCCAAA [C8G A42C U47A] | < 1e-05 | < 1e-05 | 
21 | AUAAAAGAGCCAGAAAUACAGAAAUGUAGUUCACGAGGAGGGGGUUUAUCGAAUUUUCGGCGGAUGCCUCCAAA [C8A C16A G32C A42G] | < 1e-05 |  | 
22 | AUAAAAGGGCCAGAACUACAGAAAUGUAGUUGCCGAGGAGGAGGUUUAUCGAAUGUUCGGCUGAUGACUCCAAA [C8G A33C U55G G62U C67A] | < 1e-05 | < 1e-05 | 
23 | AUAAAAGAGCCAGAACUACAGAAAUGUAGUUGUCGAGGAGGAGGUUUAUCGAAUGUUCGGCGGAUGCCUCCAAA [C8A A33U U55G] | < 1e-05 |  | < 1e-05
24 | AUAAAAGGGACAGAACUACAGAAAUGUAGUUGACGAGUAGGAGGUUUAUCGGAUUUUCGGCGGAUGCCUCCAAA [C8G C10A G38U A52G] | < 1e-05 | < 1e-05 | 
